± gives the uncertainty stated by the source.
experiment: amyloid nucleation score (Sup35N fusion, yeast selection) (log enrichment); library NNK3; higher = more nucleation; inactive = no reads after selection
Summary of the method: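 Nucleation score: DiMSum log enrichment of output over input reads, centred on the mode score of non-aggregating sequences. Only sequences with at least 100 input reads were kept. Reads came from Illumina sequencing of plasmid inserts before and after 7 days of growth at 30°C without adenine and uracil, in psi-negative yeast expressing Sup35N fused to peptides of 20 random codons after 24 hours of induction with 100 μM copper sulfate.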

Substance	amyloid nucleation score
LSFNTVDSPGRIYFRIWYGV	1.07 ± 0.14
LSGLFARRNQWWKYGLRRN	inactive
LSGRIAKTKRLIVHRLCEEG	inactive
LSGRVERVW	inactive
LSHYVMVTYRAKGRMAGRIW	inactive
LSIDEWRFSSANSTALECHV	inactive
LSINTQTS	inactive
LSKHS	inactive
LSKVVLLVFKGTP	inactive
LSLNSEVFGLSSTSNTVPFD	inactive
LSMSYLMSVLLCDLQKVYNT	inactive
LSNPTSRVLSYRTNM	inactive
LSNVVGRATGKRTTSYHEDA	0.43 ± 0.17
LSPQSIVSYYTLWTFGFTAC	-0.28 ± 0.77
LSQVFLVMFKF	inactive
LSRGFYAS	inactive
LSRLFLSRVGHVIYTKSSVD	inactive
LSSETWRRLQIVSIHYGLVV	inactive
LSSHS	inactive
LSVCVIEHAWVFCRTPVQAF	inactive
LSVMLQ	0.988 ± 0.19
LSVYGLQGHSNHNRMDGISW	0.718 ± 0.2
LSWIASSGKGWSTTMCISTM	inactive
LSWSGNSSAYKSIIR	inactive

Substance	amyloid nucleation score
LSYYVFRYTNTHWSPCFYIE	inactive
LTAYGNVNCV	inactive
LTDSY	inactive
LTGCRL	inactive
LTIAIWVMYKDQYFCLWHLL	inactive
LTIINRFEFRQKNINGTYRK	2.73 ± 0.068
LTSLLTARKNCTNFHN	inactive
LTVLSCTAQVDHGIAYCLEV	inactive
LTWYWKNGCSLLPLIGLSGN	inactive
LVAGSTRTSLLVLRALGAWL	inactive
LVDHLFDMITMHDGPCQLHQ	inactive
LVDLGFMRRCSQSRLQDFCF	0.832 ± 0.24
LVEIIHVSLVFLP	inactive
LVEMKALRTD	inactive
LVFIWAKTHRHQLFVTEAEL	inactive
LVGFRTGTALLDQMAL	inactive
LVGTRRLSSYRHRFKWITIG	inactive
LVHDLDLCSPGVSYQKSRMS	inactive
LVIWHIVKTAVMWTARTERL	-0.409 ± 1.5
LVMNNRYLYSRFLLLV	-0.619 ± 0.73
LVPVMTFNWPKPSNGVSAVA	-0.413 ± 1
LVRRHSFSGYRRDT	inactive
LVSCK	inactive
LVSSMMIHVYFNEVLVFMIC	0.796 ± 0.1

Substance	amyloid nucleation score
LVTFFSGRYGHWWLDNCWRQ	inactive
LVVPGYNLL	inactive
LVVRNVEVPIHR	inactive
LVVYSVGFWHR	-0.143 ± 0.48
LVWHLHSSSCRARCRIGGGK	inactive
LVYKLRGRCYERLYKWRLCD	inactive
LVYNATYCSSMHHSGS	inactive
LVYPSFLLFKSIASHDSTGD	inactive
LWEDNVWVLKR	-0.1 ± 0.19
LWGYDNDVNCCTMALNVHGV	0.503 ± 0.3
LWHKMSDMV	inactive
LWKFSILAYRRFILFKLQMN	inactive
LWMFDYKPRLVCQKSV	inactive
LWSCPTDFRMCSVWLTLRVS	inactive
LWVAVYMFGTCWMRDEVDDV	inactive
LWVCNRGGTPTSVSSESRRE	-0.187 ± 1
LWYTSSSRGWPISLSSMW	inactive
LWYWVELLCCTGGSRA	2.02 ± 0.086
LYAFICTTYTCVVN	inactive
LYCRLCVSIFM	-0.02 ± 1.1
LYDCSINKQG	inactive
LYDDHFYDWQGYVRRRILDS	inactive
LYDLNLSDLMNCRYTIRGWF	inactive
LYEGD	inactive

Substance	amyloid nucleation score
LYETSRSFPH	inactive
LYFILLAHLFSCNNPVSKDP	1.4 ± 0.13
LYGIFHRYTNFCSSVLCQVF	1.66 ± 0.12
LYGLLSCSERVVKLWFWSWV	inactive
LYHPGALVHQQIDS	inactive
LYHTLKTHVKIFPCHSTDAP	inactive
LYIIFERD	inactive
LYKGYYVLMLEWARDKIHSA	inactive
LYLVMSYV	inactive
LYLYYSSTVSLVKYSNEVNC	inactive
LYMRLIGIRRAMHIYPPLKS	inactive
LYPMGFQ	inactive
LYSPYLGCDNGATQFWSGTT	0.226 ± 0.88
LYSSLCRGWLCRISISTRAP	inactive
LYVLSGVGICIRGDRLSC	0.535 ± 0.36
LYVVWYSHPWTEYFACSLVA	inactive
LYVWLAWYWVYPINHALVVC	inactive
LYYSWKKEYQFIWVVHTFAK	inactive
MAAFVCSFEFSLGSTCSMGG	inactive
MAIFKLFVPFIFLIEFCYMV	inactive
MAPPNIWFQCQ	inactive
MAWGLVNMRMSLSAKYQGAL	inactive
MCAHVNVMRNSFYRRNAPNY	0.603 ± 0.16
MCEMVFTWDSWLLRRIRQDW	1.5 ± 0.087

Substance	amyloid nucleation score
MCFKTEYSRSPGYIAN	inactive
MCGCARLFVSLSATAKTNP	-0.003 ± 1.1
MCGLVTFWRALRGNRGRY	inactive
MCGQE	inactive
MCRLDA	2.38 ± 0.073
MCRMLFISGIQNCDPDVIMH	1.15 ± 0.12
MCSETWIYALSICDNLCRD	1.29 ± 0.16
MCSRCVAKLATTPRLGFNDS	inactive
MDGPGVTFCPEVLDKWDGSI	-0.205 ± 1.4
MEFHYWTGVCQVSK	inactive
MEYWYYDMD	inactive
MFCMYTRDREIYLVETLLYV	inactive
MFKNILCVHVLTSAGT	inactive
MFLFKVTDTE	1.88 ± 0.098
MFQFVFSVQMSGSAFRMFMK	inactive
MFRDIWLFGPISWIYECCRS	2.36 ± 0.091
MFSCWYIISWCIEVHDGVKI	inactive
MGGVCMSMS	inactive
MGNLVNSNVGSTLSKKIRND	0.351 ± 0.35
MGQRLLLVSANAWD	inactive
MGTVVTMSMRLSNSVWGVGH	1.28 ± 0.14
MGVVNFVITGNSYCAKVMLY	inactive
MGYCLGNDGSIKALFLVVNV	inactive
MHSTVVEHLLWLTFTPGYKL	inactive

Substance	amyloid nucleation score
MICSLTSHRKRN	inactive
MIFNHMNKL	inactive
MIFNVDGLDLVPDKVRYYRD	inactive
MIGNITMGLMSLDSGKRSVN	inactive
MIIAFFCDYNGVEG	inactive
MILILY	inactive
MIMYIGVCVSVGLFEDYAYR	0.044 ± 0.49
MINSCFK	inactive
MINWHSRMSSEG	inactive
MITLDCLNNNI	inactive
MIVNNELCTNLPYLSGAVNR	inactive
MKLDICWLRLSRCYVVVVWV	inactive
MKLINRDFSL	inactive
MKVLYDKVKSVTASIELWFW	inactive
MLCLWFNEFHDVCPT	inactive
MLCTTLRNYMTSSICFIRYQ	inactive
MLHFG	inactive
MLSSCRVFRLFCFNCVTLNR	0.816 ± 0.16
MLSYYRFWCPVGRVVMMSFW	inactive
MLWYLESWLTLHGTVECNVW	inactive
MMFVGYLSCFSS	2.38 ± 0.059
MMGIGVACYVKCGFFVYNWG	inactive
MMNILILCVKGMHFGRHKYV	inactive
MMNVWLAFAPGML	0.9 ± 0.14

Substance	amyloid nucleation score
MMRSVHFFRCRQTHENLLMC	-0.207 ± 0.66
MMTCF	inactive
MNNCTDLYLLVNPRIRFGVM	inactive
MNSVHYNDHPHDAVKFTISI	inactive
MNVFVAQSLRRVHCAHELN	0.233 ± 0.81
MNYWHNYFSLYDHLLMSKCC	inactive
MPCLYALLYG	inactive
MPSLRRS	inactive
MPWMVATSNM	inactive
MQAQRKYMSMRNRYQVAKVE	inactive
MQICSCYRFSD	2.45 ± 0.071
MQSAAM	inactive
MRCQNSCRHS	inactive
MRRYIRNIKAHMCVIVRVYL	inactive
MRSLGSAMWR	inactive
MRSYFEDFCGFQAIRS	1.07 ± 0.14
MRTINIS	inactive
MRVLGLGEAWDDNGLRRLRA	inactive
